# Laboratory results taken from article PMC3141246 (Nucleic Acids Research, 2011).
# B1: Rpp20, protein subunit of human nuclear RNase P (natural protein, UniProt O75817 1-140, looked up)
# chain: MAENREPRGAVEAELDPVEYTLRKRLPSRLPRRPNDIYVNMKTDFKAQLARCQKLLDGGARGQNACSEIYIHGLGLAINRAINIALQLQAGSFGSLQVAANTSTVELVDELEPETDTREPLTRIRNNSAIHIRVFRVTPK
# Molecular target: the molecule itself
# Assay: native gel or EMSA
protein,measurement,value
B1,binding result,binds
